B1: NCK2 (parent)
chain: YTGPSSSGRFAGREWYYGNVTRHQ
B2: SPOPL (parent)
chain: PDDKLTLFCEVSVVQDSVNISGHT

Variants of: B1
Assay: protein stability index of a GFP-peptide fusion (GPS, HEK-293T) (PSI 1-6); higher = more stable
Settings: c terminus: a fixed tail appended
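Further: lentivirally expressed fusions sorted by FACS into six bins by GFP to DsRed ratio, PSI derived from sequencing read proportions per bin multiplied by bin number.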

Protein stability index, by site and new letter:
S5: F 2.77, H 1.92, Q 1.97, T 1.86, V 1.4, L 2.56, N 1.95, R 2.03, I 2.13, Y 3.23, A 2.6, E 1.62, D 1.96, C 1.31, K 1.7, W 3.56, M 2.96, G 2.46
T2: K 2.27, V 2.32, H 1.88, S 1.37, N 2.19, A 2.62, M 2.62, W 2.35, F 2.04, E 2.82, I 1.79, L 1.7, D 2.63, P 3.3, Q 1.5, R 1.67, G 2.44, Y 2.67, C 2.06
E14: W 1.92, H 2.69, Q 2.09, R 2.58, L 1.68, C 3.32, P 1.87, S 1.67, N 1.78, Y 1.3, V 2.56, A 1.57, G 1.69, M 1.64, D 1.4, F 1.95, K 2.03, I 1.58
G8: E 2.32, R 2.3, Q 1.64, D 2.65, Y 2.22, K 1.82, V 1.48, N 1.71, A 1.25, I 1.59, F 2.04, M 1.68, L 3.02, T 1.87, P 1.66, H 1.51, S 2.22, C 2.32
Y1: F 1.47, D 3.3, M 2.57, K 2.75, I 2.08, H 2.48, W 2.66, E 3.28, R 2.55, T 3.08, G 2.46, V 2.93, S 2.12, Q 2.96, A 3.25, C 2.01, L 2.3, P 3.8, N 2.73
G12: K 2.32, T 2.17, M 1.75, N 3.14, C 2.81, E 1.49, Q 2.09, P 1.42, D 2.44, Y 2.1, L 2.25, W 1.9, A 1.73, R 1.98, S 1.52, V 1.84, I 2.66, H 2.26, F 2.45
R13: T 1.81, K 2.02, S 2.03, A 1.61, F 2.33, D 2.09, Q 2.44, L 1.7, M 1.63, I 2.64, H 2.75, G 2.21, P 1.97, E 2, W 2.01, N 1.91, C 3.48, V 2.44, Y 1.94
W15: Y 2.23, C 2.19, R 2.35, M 2.18, T 2.28, D 2.83, F 2.19, A 2.49, I 1.71, K 2.22, P 2.36, G 2.82, L 1.77, Q 2.36, V 2.36, S 1.5, E 2.52, N 2.73, H 2.66
Y16: D 2.27, I 2.19, Q 2.37, H 2.03, M 1.61, V 1.5, E 2.26, W 2.29, F 2.26, N 2.13, T 2.45, S 2.33, G 1.81, C 2.03, K 2.06, A 2.24, L 1.59, R 1.98
S7: T 2.68, Q 2, E 2.32, H 1.85, Y 2.02, V 1.46, G 1.82, F 1.59, A 1.71, C 3.63, D 1.59, R 1.82, K 2.08, M 1.58, P 2.18, N 1.47, L 2.11
P4: K 2.4, T 1.9, F 1.82, Y 3.08, L 1.64, W 1.71, Q 1.26, E 2.31, D 1.56, M 2.37, G 1.99, R 3.61, N 2.32, V 1.36, A 2.13, I 1.03, H 2.48, C 3.83, S 1.79
A11: Q 2.21, N 2.34, S 2.2, V 1.62, P 1.25, T 2.3, M 1.48, D 1.95, H 2, L 2.02, F 4.19, E 2.04, K 1.32, R 1.85, I 1.55, Y 2.2, W 3.03, G 2.44
Y17: A 2.11
S6: E 1.49, I 1.96, R 1.46, F 3.15, C 1.69, N 1.78, H 2.15, Y 2.13, Q 2.22, M 2.35, T 1.93, K 2.35, V 1.58, G 1.54, A 2.09, P 1.66, L 1.77, D 1.91
F10: N 2.13, W 3.07, Q 1.84, M 2.1, H 2, A 2.14, S 2.11, Y 1.64, P 2.42, G 2.35, V 2.13, L 1.44, D 1.93, I 1.89, C 1.44, K 2.25, E 2.95, T 2.2, R 1.66
G3: C 1.83, V 2.25, Q 1.78, I 2.07, K 2.08, N 2.17, E 2.34, M 1.88, P 1.56, H 1.71, W 2.99, F 2.25, Y 2.13, D 2.38, S 2.04, T 1.54, A 2.23, R 2.17, L 1.81
R9: F 4.5, D 1.81, P 2.14, Y 1.73, Q 1.81, I 3.13, H 1.45, E 2.5, T 1.44, M 3.36, C 2.09, V 1.85, G 2.17, S 1.38, N 1.69, K 1.46, A 1.56

Variants of: B2
Assay: as above
Settings: c terminus: a fixed tail appended

Protein stability index: each site, then its substitutions
T24: G 1.51, S 2.38, N 2.97, M 2.39, P 3.77, F 1.74, Q 2.06, I 2.27, H 2.4, A 1.54, D 2.46, E 3.45, W 3.64, K 3.16
G22: E 3.28, F 3.28, H 1.66, Q 2.97, P 2.07, N 1.98, K 2.1, T 3.74, S 2.05
H23: W 5.02, V 2.03, T 2.44, P 2.26, K 2.21, A 2, Q 2.3, G 2.01, D 3.06, R 2.71, N 2.6, E 3.21, I 2.41, L 1.69, S 2.18, C 2

Source: the supplement of paper PMC10567573
